Measurements from the supplement of paper PMC12764529.
± gives the half width of the 95% confidence interval.

Key:
[1] = folding stability dG unfold from chymotrypsin proteolysis; higher = more stable
Method in brief: (§1)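 Bayesian fitting of sequencing counts gave K50 for each design. Unfolding free energy followed by setting this against a sequence-predicted unfolded-state K50 and a shared folded-state K50, either per protease or with trypsin and chymotrypsin combined. The designs, under 80 residues and lacking cysteine, were digested in a PA-tagged cDNA display format at 11 threefold-diluted protease concentrations and without protease, and only those with AlphaFold2 dimer inter-PAE above 15 were kept.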

[2] = folding stability dG unfold (combined trypsin and chymotrypsin); higher = more stable
Method in brief: as §1

[3] = folding stability dG unfold from trypsin proteolysis; higher = more stable
Method in brief: as §1

Sequence | folding stability dG unfold [1] [kcal/mol] | folding stability dG unfold [2] [kcal/mol] | folding stability dG unfold [3] [kcal/mol]
SAGGSAGGSAGGSVTYEADEVEIKEFTDPSTGKKYVTVTFPGPGGPVTTTLPADLIEELSAGGSAGGSAGGS [r10_447_JUSTAS] | 1.48 ± 0.03 | 1.33 ± 0.093 | 0.96 ± 0.043
SAGGSAGGSAGGSVWIRMPPSKIKDLLDKFGIEPIEIEKMPPGWVYIRITPDALKEAGVFSAGGSAGGSAGG [r7_587_TrROS] | 0.887 ± 0.3 | 0.946 ± 0.16 | 0.839 ± 0.14
SAGGSAGGSAGGSWITFRIPEGNPEFIEELARGFGIKPKRINPNRGTITIKLPPGAKIVSAGGSAGGSAGGS [r4_3_TrROS] | 0.645 ± 0.096 | 0.641 ± 0.11 | 0.474 ± 0.12
SAGGSAGGSAGGSWKIDKFTSIERTDGGYVIRIRMENPDGPPMKQTFYFPPGDDELANISAGGSAGGSAGGS [r4_253_TrROS] | 0.242 ± 0.3 | 0.344 ± 0.27 | 0.285 ± 0.21
SAGGSAGGSAGGSWLEFTFIDPGYGWIISTMKIEINPNGNLNMDMEMVPLKPADDPEDASAGGSAGGSAGGS [r4_178_TrROS] | 3.32 ± 0.099 | 2.9 ± 0.16 | 2.38 ± 0.13
SAGGSAGGSAGGTGPDTPVTIETTVESVVYEGPEVKVVETFEKKITVTIPPTANPEKVSLSAGGSAGGSAGG [r7_591_JUSTAS] | -1.06 ± 0.31 | < -1 | -0.81 ± 0.43
SAGGSAGGSAGGTGPPPVKTLVIVANWTEEQAEALKKAFPDQEVTVYEIPGLPKTVAVVSSAGGSAGGSAGG [r17_254_TrMRF] | 1.42 ± 0.086 | 1.16 ± 0.17 | 0.833 ± 0.03
SAGGSAGGSAGGTIEELVKAGKTVKVRVRLKNGETLEVEIRPDEVVEFPNIEEIEVEEVSAGGSAGGSAGGS [r10_700_TrROS_Hall] | 1.86 ± 0.026 | 1.51 ± 0.05 | 0.784 ± 0.016
SAGGSAGGSAGGTPITDEEFRDLPDDVKLVFENGEVAYVPRDPLKVPIGADKTVTAEPVPSAGGSAGGSAGG [r7_643_TrMRF] | 0.388 ± 0.035 | 0.801 ± 0.056 | 1.2 ± 0.059
SAGGSAGGSAGGTVTFFEENEFVIDVPDPLTGRPIRIEVPGDPNKPEEIEARAEELRLSSAGGSAGGSAGGS [r10_379_JUSTAS] | -0.157 ± 0.096 | 0.0609 ± 0.072 | 0.187 ± 0.066
SAGGSAGGSAGGWAFMWVIEIEMPPEQMPPEDMKKFPNMRIEIEPYWVPIKIDPENGELRSAGGSAGGSAGG [r17_310_TrROS] | 2.68 ± 0.04 | 2.5 ± 0.19 | 1.71 ± 0.075
SAGGSAGGSAGGWDEIKDILREAGWPVKNVEVQWIPNPENGKPMNSITVSYPDGKKWTIMSAGGSAGGSAGG [r7_337_TrROS] | 0.0542 ± 0.19 | 0.0642 ± 0.098 | -0.195 ± 0.13
SAGGSAGGSAGGWFYKRDPDGKPLEPRPVVVIKISYEISYDADGGWKLKLNISIYPVYWISAGGSAGGSAGG [r7_572_TrROS] | 5.01 ± 0.15 | 4.77 ± 0.31 | 3.58 ± 0.15
SAGGSAGGSAGGWIMVPIEIKVDLKWGPNGQHEIETVPILIIIRIPPPPVPEEQAEKNNGSAGGSAGGSAGG [r11_318_TrROS] | 2.68 ± 0.07 | 2.81 ± 0.19 | 2.89 ± 0.15
SAGGSAGGSAGGWNIQVNPDNLKPGKEYRISITHPNGPPIPFEVRLKADGDGDWEFKIESAGGSAGGSAGGS [r10_390_TrROS] | 0.183 ± 0.12 | 0.134 ± 0.091 | -0.0699 ± 0.059
SAGGSAGGSAGGWNYIIFTIRYEFEYKDPNGKTMKHEVEITIIIPIPPIKRDEDGKYKLSAGGSAGGSAGGS [r10_168_TrROS] | 3.35 ± 0.17 | 2.79 ± 0.28 | 2.31 ± 0.17
SAGGSAGGSAGGWYRIEIEFGNKPREYVVPGAPPDEAADMLQDPGIKNVKVEPLPPEQLKSAGGSAGGSAGG [r7_502_TrROS] | 0.537 ± 0.16 | 0.174 ± 0.25 | -0.817 ± 0.65
SAGGSAGGSAGHIPIIFQFEFEHYDPDDGKPKEHRWVIVIEFDGNGIKNIRIIPKEDAKKLLSAGGSAGGSA [r18_406_TrROS] | 2.28 ± 0.047 | 2.25 ± 0.14 | 2.31 ± 0.085

Sequence | folding stability dG unfold [1] [kcal/mol] | folding stability dG unfold [2] [kcal/mol] | folding stability dG unfold [3] [kcal/mol]
SAGGSAGGSAGIITIWFPPDEEFRDFIENLPGPIEDVNIEPRNPGWIKVTLTMRMPPDQVSAGGSAGGSAGG [r11_143_TrROS] | 0.864 ± 0.17 | 0.871 ± 0.17 | 0.703 ± 0.07
SAGGSAGGSAGIKIEWEPNPNGSWRMKIEIPNPNGNPKKIEVWANPNGKIREDEAKEILNSAGGSAGGSAGG [r11_759_TrROS] | 1.18 ± 0.24 | 1.02 ± 0.39 | 0.707 ± 0.12
SAGGSAGGSAGIKIVAPSPELADMIAKEIAKEFGLPGKIKDIEIEVIPYKPTPNGGYQPYSAGGSAGGSAGG [r17_237_TrROS] | -0.363 ± 0.75 | -0.383 ± 0.81 | -0.14 ± 0.26
SAGGSAGGSAGIVIKAKSPDEAVEALKKLFEKTGKADINIKPVKVLPDGNVLVEAGIDNKSAGGSAGGSAGG [r17_430_TrMRF] | -1.43 ± 0.61 | -0.689 ± 0.34 | -0.403 ± 0.054
SAGGSAGGSAGIVIPLDGRPIVIDMYPNGYMRIEVEPPNGKKKTRTFPGAPIEDILKAIKSAGGSAGGSAGG [r11_934_TrROS] | -0.0199 ± 0.12 | -0.204 ± 0.28 | -0.695 ± 0.71
SAGGSAGGSAGKAESGDNAITLTLPGGHKVTIPNLPPNEPVWVKLNNRWVKIGDLKVNPKSAGGSAGGSAGG [r11_16_TrMRF] | 0.227 ± 0.25 | 0.196 ± 0.18 | -0.131 ± 0.16
SAGGSAGGSAGKDKGQKEVPEINIRIEPVNFHWEYDKGNGKPKSIHFMFKIRYPNGREITSAGGSAGGSAGG [r11_890_TrROS] | 0.674 ± 0.29 | 1.15 ± 0.28 | 1.24 ± 0.1
SAGGSAGGSAGKEIIKNIPKGVKVLKIEPLPGKSGTYVKIEVEFPDPNGVKHRLTFIAPESAGGSAGGSAGG [r17_140_TrMRF] | 1.34 ± 0.14 | 1.16 ± 0.23 | 0.67 ± 0.15
SAGGSAGGSAGKEKTITVLLEVDGYLVVAEVKLNEDGSLEITSVKVIKLPKPKPSPEALKSAGGSAGGSAGG [r11_843_TrROS_Hall] | 0.516 ± 0.033 | 0.907 ± 0.21 | 1.07 ± 0.048
SAGGSAGGSAGKETITITLVVTDENGEKYLIRVEAKIDPKTNKITITKIEIIRLDDLKKLSAGGSAGGSAGG [r11_777_TrROS_Hall] | 1.72 ± 0.058 | 1.75 ± 0.41 | 1.12 ± 0.093
SAGGSAGGSAGKFKIKVFTHPDGYALALIEVPLGDKPVLILTLIKFPEDGNAEAETFIFPSAGGSAGGSAGG [r11_555_TrMRF] | 3.25 ± 0.077 | 2.84 ± 0.13 | 2.06 ± 0.053
SAGGSAGGSAGKFKLKIKEVHWRENPNGYEQVKVEIKIPGEEKKIWFPPGMSIDQILDQLSAGGSAGGSAGG [r11_1056_TrROS] | 1.13 ± 0.18 | 0.732 ± 0.12 | 0.415 ± 0.081
SAGGSAGGSAGKIEAFPGKNTVLLKISIPRRDPNSDSIYTLHAVIPATPEQAKKFLELGISAGGSAGGSAGG [r11_389_TrMRF] | 0.899 ± 0.14 | 0.97 ± 0.1 | 0.89 ± 0.041
SAGGSAGGSAGKIKVEKDKKTNEYRVTIELFDKNGKPVKKIEITVKKEDLPKIKELLKKLSAGGSAGGSAGG [r11_77_TrROS_Hall] | 3.6 ± 0.1 | 3.4 ± 0.076 | 2.96 ± 0.069
SAGGSAGGSAGKIPEIIKKTNAVEKDGKIFLGIKTDGKYYLIELEKKTLKIKKIEPFPDKSAGGSAGGSAGG [r11_808_TrMRF] | 0.776 ± 0.12 | 0.488 ± 0.085 | -0.135 ± 0.14
SAGGSAGGSAGKIVIVVDEDGNYTLKVNGKTYVFKTPEEAKAAAEELKKAGIEIEIVEVPSAGGSAGGSAGG [r17_35_TrROS_Hall] | 4.96 ± 0.16 | 4.85 ± 0.17 | 3.6 ± 0.21
SAGGSAGGSAGKIWIYNPENGWIFEISIQPHPMPNDDGEPQWMFSIDVEVYPPGKPGQPISAGGSAGGSAGG [r11_531_TrROS] | 4.1 ± 0.066 | 3.59 ± 0.065 | 2.59 ± 0.079
SAGGSAGGSAGKIYIVKLPNETIEIEFEGTEEEAIDFAIKELEKLFPKPIPKDDIIILGGSAGGSAGGSAGG [r11_1028_TrMRF] | 1.65 ± 0.043 | 1.71 ± 0.14 | 1.76 ± 0.074
